Where two headings read alike, the source gives them in different places.
How the values were obtained:
[1] = biological target: T1, MSLN on OVCAR8 cells (~90K MSLN antigens/cell) (UniProt Q13421 296-598); experiment: binding to OVCAR8 cells, MFI APC against mAb concentration
[2] = biological target: T2, human mesothelin (MSLN) (human, UniProt Q13421 296-580, limits assumed); experiment: BLI (Octet), multiple concentrations, bsAb in 1+1 Fab-scFv-Fc format; lower table, column 'human MSLN (M)'
T2 construct: Antigen of the Octet KD values

[3] = biological target: T2, human mesothelin (MSLN); experiment: KD quoted in the FIG. 25 legend; Octet (BLI) per FIGS. 20-21
[4] = biological target: T1, MSLN on OVCAR8 cells (~90K MSLN …); experiment: binding to OVCAR8 cells, MFI APC against mAb concentration; remark: listed apart in the source

Row | Binder | EC50 (read off the curve) [1] [µg/mL] | Kd [2] [pM] | Kd [3] [pM] | EC50 (read off the curve) [4] [µg/mL]
1 | XENP31697 (bispecific antibody) chain 1: QVQLVQSGAEVKKPGASVKVSCKASGYTFTSYWMHWVRQAPGQGLEWMGMIHPNSDNTIYYEKFQGRVTMTVDKSISTAYMELSRLRSDDTAVYYCAIIITPVVPKFDYWGQGTLVTVSSASTKGPSVFPLAPSSKSTSGGTAALGCLVKDYFPEPVTVSWNSGALTSGVHTFPAVLQSSGLYSLSSVVTVPSSSLGTQTYICNVNHKPSDTKVDKKVEPKSCDKTHTCPPCPAPPVAGPSVFLFPPKPKDTLMISRTPEVTCVVVDVKHEDPEVKFNWYVDGVEVHNAKTKPREEEYNSTYRVVSVLTVLHQDWLNGKEYKCKVSNKALPAPIEKTISKAKGQPREPQVYTLPPSREEMTKNQVSLTCDVSGFYPSDIAVEWESDGQPENNYKTTPPVLDSDGSFFLYSKLTVDKSRWEQGDVFSCSVMHEALHNHYTQKSLSLSPGK chain 2: not shown chain 3: DIVMTQSPDSLAVSLGERATINCKASHDVGTSVAWYQQKPGQSPKLLIYWASTRHTGVPDRFTGSGSGTDFTLTISSLQAEDVAVYFCQQYSSYPLTFGAGTKLEIKRTVAAPSVFIFPPSDEQLKSGTASVVCLLNNFYPREAKVQWKVDNALQSGNSQESVTEQDSKDSTYSLSSTLTLSKADYEKHKVYACEVTHQGLSSPVTKSFNRGEC | ~0.07 | 280 | – | –
2 | XENP32745 (bispecific antibody) chain 1: QVQLVQSGAEVKKPGASVKVSCKASGYTFTSYWMHWVRQAPGQGLEWMGMIHPNSDNTIYYEKFQGRVTMTVDKSISTAYMELSRLRSDDTAVYYCAIIITPVVPKFDYWGQGTLVTVSSASTKGPSVFPLAPSSKSTSGGTAALGCLVKDYFPEPVTVSWNSGALTSGVHTFPAVLQSSGLYSLSSVVTVPSSSLGTQTYICNVNHKPSDTKVDKKVEPKSCDKTHTCPPCPAPPVAGPSVFLFPPKPKDTLMISRTPEVTCVVVDVKHEDPEVKFNWYVDGVEVHNAKTKPREEEYNSTYRVVSVLTVLHQDWLNGKEYKCKVSNKALPAPIEKTISKAKGQPREPQVYTLPPSREEMTKNQVSLTCDVSGFYPSDIAVEWESDGQPENNYKTTPPVLDSDGSFFLYSKLTVDKSRWEQGDVFSCSVMHEALHNHYTQKSLSLSPGK chain 2: QVQLVQSGAEVKKPGASVKVSCKASGYTFTSYWMHWVRQAPGQGLEWMGMIHPNSDNTIYYEKFQGRVTMTVDKSISTAYMELSRLRSDDTAVYYCAIIITPVVPKFDYWGQGTLVTVSSASTKGPSVFPLAPSSKSTSGGTAALGCLVKDYFPEPVTVSWNSGALTSGVHTFPAVLQSSGLYSLSSVVTVPSSSLGTQTYICNVNHKPSNTKVDKKVEPKSCGGGGSGGGGSQAVVTQEPSLTVSPGGTVTLTCGSSTGAVTTSNYANWVQQKPGKSPRGLIGGTNKRAPGVPARFSGSLLGGKAALTISGAQPEDEADYYCALWYSNHWVFGGGTKLTVLGKPGSGKPGSGKPGSGKPGSEVQLVESGGGLVQPGGSLRLSCAASGFTFSTYAMNWVRQAPGKGLEWVGRIRSKANNYATYYADSVKGRFTISRDDSKNTLYLQMNSLRAEDTAVYYCVRHGNFGDSYVSWFAYWGQGTLVTVSSGGGGSGGGGSKTHTCPPCPAPPVAGPSVFLFPPKPKDTLMISRTPEVTCVVVDVKHEDPEVKFNWYVDGVEVHNAKTKPREEQYNSTYRVVSVLTVLHQDWLNGKEYKCKVSNKALPAPIEKTISKAKGQPREPQVYTLPPSREQMTKNQVKLTCLVKGFYPSDIAVEWESNGQPENNYKTTPPVLDSDGSFFLYSKLTVDKSRWQQGNVFSCSVMHEALHNHYTQKSLSLSPGK chain 3: DIVMTQSPDSLAVSLGERATINCKASHSVGTSVAWYQQKPGQSPKLLIYWASTRHTGVPDRFTGSGSGTDFTLTISSLQAEDVAVYFCQQYSSYPLTFGAGTKLEIKRTVAAPSVFIFPPSDEQLKSGTASVVCLLNNFYPREAKVQWKVDNALQSGNSQESVTEQDSKDSTYSLSSTLTLSKADYEKHKVYACEVTHQGLSSPVTKSFNRGEC | – | – | 450 | ~0.05

— patent publication US20230340128A1 (Xencor, published 2023)
